# From patent US20230039851A1 (ARO BIOTHERAPEUTICS, published 2023)
# Changes are numbered by the printed parent chain. Names and notes keep the numbering of the source.
# B1: wt Tencon (designed binder)
# chain: LPAPKNLVVSEVTEDSLRLSWTAPDAAFDSFLIQYQESEKVGEAINLTVPGSERSYDLTGLKPGTEYTVSIYGVKGGHRSNPLSAEFTT
# notes: also called wild type tencon
# B2: A10V, A79S (designed binder)
# chain: MLPAPKNLVVSRVTEDSARLSWTAPDAAFDSFNIAYWEPGIGGEAIWLRVPGSERSYDLTGLKPGTEYKVWIHGVKGGSSSPPLIARFTT
# notes: Variant of B7; not shown: His tag: FN3 domains were purified as His-tagged proteins
# B3: A10V, H73A (designed binder)
# chain: B2 chain with H73A, S79A
# notes: as for B2
# B4: A10V, W47A (designed binder)
# chain: B2 chain with W47A, S79A
# notes: as for B2
# B5: A10V, N33A (designed binder)
# chain: B2 chain with N33A, S79A
# notes: as for B2
# B6: A10V, W71A (designed binder)
# chain: B2 chain with W71A, S79A
# notes: as for B2
# B7: A10V, I85A (designed binder)
# chain: B2 chain with S79A, I85A
# notes: as for B2
# B8: A10V, W37A (designed binder)
# chain: B2 chain with W37A, S79A
# notes: as for B2
# B9: A10V (designed binder)
# chain: B2 chain with S79A
# notes: Variant of B7; also called B7 A10V; not shown: His tag: FN3 domains were purified as His-tagged proteins
# B10: A10V, P39A (designed binder)
# chain: B2 chain with P39A, S79A
# notes: as for B2
# B11: A10V, P82A (designed binder)
# chain: B2 chain with S79A, P82A
# notes: as for B2
# B12: B7 (designed binder)
# chain: B2 chain with V10A, S79A
# notes: FN3 domain (Tencon27-based library clone) expressed in E. coli; also called ALB40; not shown: His tag: FN3 domains were purified as His-tagged proteins
# B13: A10V, G42A (designed binder)
# chain: B2 chain with G42A, S79A
# notes: as for B2
# B14: A10V, A35S (designed binder)
# chain: B2 chain with A35S, S79A
# notes: as for B2
# B15: A10V, K69A (designed binder)
# chain: B2 chain with K69A, S79A
# notes: as for B2
# B16: A10V, R87A (designed binder)
# chain: B2 chain with S79A, R87A
# notes: as for B2
# B17: A10V, I41A (designed binder)
# chain: B2 chain with I41A, S79A
# notes: as for B2
# B18: A10V, R49A (designed binder)
# chain: B2 chain with R49A, S79A
# notes: as for B2
# B19: A10V, G40A (designed binder)
# chain: B2 chain with G40A, S79A
# notes: as for B2
# B20: A10V, S80A (designed binder)
# chain: B2 chain with S79A, S80A
# notes: as for B2
# Target: T1, Human Serum Albumin (human, UniProt P02768 25-609)
# T1 construct: ELISA: albumin coated on plates; pull-down: endogenous albumin in normal human serum; also called HSA; Human SA
# T1 sequence (P02768 25-609 limits assumed): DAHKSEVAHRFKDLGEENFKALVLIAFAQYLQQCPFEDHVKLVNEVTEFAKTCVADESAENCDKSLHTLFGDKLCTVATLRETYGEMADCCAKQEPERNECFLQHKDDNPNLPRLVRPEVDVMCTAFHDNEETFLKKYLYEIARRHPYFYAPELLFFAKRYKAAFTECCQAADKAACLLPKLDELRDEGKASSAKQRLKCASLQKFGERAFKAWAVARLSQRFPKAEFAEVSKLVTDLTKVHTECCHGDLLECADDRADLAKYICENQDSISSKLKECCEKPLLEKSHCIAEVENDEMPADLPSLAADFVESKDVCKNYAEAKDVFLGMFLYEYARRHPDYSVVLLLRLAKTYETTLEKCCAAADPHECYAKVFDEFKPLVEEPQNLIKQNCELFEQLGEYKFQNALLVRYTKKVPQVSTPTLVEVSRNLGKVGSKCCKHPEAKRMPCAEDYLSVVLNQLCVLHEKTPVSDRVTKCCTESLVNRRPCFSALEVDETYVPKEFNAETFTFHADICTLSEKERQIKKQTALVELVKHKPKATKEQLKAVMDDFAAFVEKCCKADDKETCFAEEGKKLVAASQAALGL
# Assay: ELISA on immobilized human albumin
# Protocol: (§1) The FN3 proteins were also tested in an ELISA assay to determine their ability to bind to immobilized human or cynomolgous albumin. The binding of 667 nM B7 and B7 variants to human or cynomolgous albumin are illustrated in Table 7. The negative control is wt Tencon.
row,binding result,Binder
1,no binding (tested: 667 nM),B1

# Target: T1, Human Serum Albumin
# Assay: pull-down of endogenous albumin from human serum
row,binding result,Binder
1,no binding,B2
2,no binding,B3
3,no binding,B4
4,no binding,B5
5,no binding,B6
6,no binding,B7
7,no binding,B8

# Target: T2, Cynomolgus Serum Albumin (cynomolgus monkey, UniProt A2V9Z4 25-608)
# T2 construct: ELISA: albumin coated on plates; pull-down: endogenous albumin in cynomolgus serum; also called cSA; Cyno SA
# T2 sequence (A2V9Z4 25-608 limits assumed): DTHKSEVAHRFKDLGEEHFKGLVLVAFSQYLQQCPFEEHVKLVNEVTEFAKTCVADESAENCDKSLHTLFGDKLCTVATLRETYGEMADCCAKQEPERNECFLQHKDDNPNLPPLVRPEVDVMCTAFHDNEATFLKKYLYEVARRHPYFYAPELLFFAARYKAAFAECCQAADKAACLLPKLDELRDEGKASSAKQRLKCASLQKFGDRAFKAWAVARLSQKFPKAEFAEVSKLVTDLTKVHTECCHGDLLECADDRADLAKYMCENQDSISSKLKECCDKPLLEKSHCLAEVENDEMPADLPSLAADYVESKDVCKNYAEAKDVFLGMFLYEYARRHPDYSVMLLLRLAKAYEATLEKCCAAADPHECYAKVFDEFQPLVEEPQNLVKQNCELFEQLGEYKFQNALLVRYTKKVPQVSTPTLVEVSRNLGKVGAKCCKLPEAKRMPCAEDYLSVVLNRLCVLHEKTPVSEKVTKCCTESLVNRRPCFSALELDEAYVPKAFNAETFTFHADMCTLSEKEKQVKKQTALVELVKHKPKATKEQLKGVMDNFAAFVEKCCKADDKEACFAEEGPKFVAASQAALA
# Assay: pull-down of endogenous albumin from cynomolgus serum
row,binding result,Binder
1,no binding,B3
2,no binding,B4
3,no binding,B5
4,no binding,B6
5,no binding,B7
6,no binding,B8

# Target: T2, Cynomolgus Serum Albumin
# Assay: ELISA on immobilized cynomolgus albumin
# Protocol: as §1
row,binding result,Binder
1,no binding (tested: 667 nM),B1

# Target: T2, Cynomolgus Serum Albumin
# Assay: ELISA, 667 nM FN3 protein on immobilized cynomolgus albumin
# Protocol: as §1
row,Cyno Albumin (RLU),Binder
1,43600 RLU,B9
2,73600 RLU,B10
3,9200 RLU,B2
4,24100 RLU,B11
5,145000 RLU,B12
6,9180 RLU,B13
7,2950 RLU,B14
8,600 RLU,B3
9,42300 RLU,B15
10,66300 RLU,B16
11,46200 RLU,B17
12,1150 RLU,B18
13,2000 RLU,B4
14,1500 RLU,B5
15,64400 RLU,B19
16,1600 RLU,B6
17,2500 RLU,B7
18,500 RLU,B8
19,2950 RLU,B20
20,775 RLU,B1

# Target: T1, Human Serum Albumin
# Assay: ELISA, 667 nM FN3 protein on immobilized human albumin
# Protocol: as §1
row,Human Albumin (RLU),Binder
1,23100 RLU,B9
2,107000 RLU,B10
3,250 RLU,B2
4,21700 RLU,B11
5,97400 RLU,B12
6,4480 RLU,B13
7,2950 RLU,B14
8,550 RLU,B3
9,15900 RLU,B15
10,47400 RLU,B16
11,50600 RLU,B17
12,1020 RLU,B18
13,2100 RLU,B4
14,2350 RLU,B5
15,69800 RLU,B19
16,950 RLU,B6
17,1000 RLU,B7
18,600 RLU,B8
19,2950 RLU,B20
20,8350 RLU,B1
